“Also recorded” adds a separate entry of the source.
Experiments:
[1] = Immune response after intracranial injection; assay type: in vivo, rodents
Description: (§1) All previous work was done with CN, the precursor of VCN. Applicants previously determined whether CN induces hemorrhage in healthy, tumor-free rats.

[2] = tested on: C6 rat GBM cells; test: Gamma camera biodistribution after intracranial injection, C6 rat GBM; assay type: in vivo, rats; settings: given intracranially as ^131I-CN
Experimental: A Gamma camera was used to determine biodistribution of ^131I-CN in rats after intracranial injection of C6 rat GBM cells, and tumors allowed to grow for 7 days. Two tumor-free rats were also administered ^131I-CN intracranially. Whole-body distribution of radioactivity was imaged at 0 and 24 hours after injection of ^131I-CN.
CN is localized to the brain in all animals at 0 hours. […] This retention was attributable to CN's specific binding to integrin αvβ3, which has been shown previously by us and others to be overexpressed in glioma cells, but not in normal brain tissue. Thus, CN delivered intratumorally binds to the expected integrins in GBM in vivo and accumulates specifically at the site of the tumor. Based on structural and functional similarities between VCN and CN, we anticipate identical findings with VCN for GBM localization.

[3] = tested on: GBM; test: Survival study, intratumoral delivery via Alzet pump in GBM-bearing animals; assay type: in vivo
[4] = Hemorrhage after brain injection in healthy, tumor-free rats; assay type: in vivo; settings: no difference to PBS-injected brains
Description: as §1

[5] = tested on: U87 GBM cells; test: Intracranial U87 GBM tumor model, Alzet pump delivery to the brain; assay type: in vivo; settings: 40 μg daily over 2 weeks via Alzet pump, U87 GBM in nude mice
Description: Finally, in an intracranial tumor model, U87 GBM cells were stereotactically implanted into nude mice. […] After 2 weeks the mice were euthanized and their brains removed. The average tumor size of animals treated with PBS was several times larger than animals treated with VCN.

[6] = Toxicology study, single i.v. escalating doses in rats; assay type: in vivo; settings: single i.v. 3 mg/kg to 75 mg/kg, 14 days
Experimental: Rats were evaluated for signs of physical toxicity or stress and sacrificed after 14 days.

[7] = target: α5β1 (Homo sapiens, UniProt P05556+P08648); test: Fluorescence polarization binding of FITC-labeled disintegrins to soluble integrin α5β1; settings: VCN with incorporated echistatin sequence
Sequence of α5β1 (P08648 42-894 limits assumed): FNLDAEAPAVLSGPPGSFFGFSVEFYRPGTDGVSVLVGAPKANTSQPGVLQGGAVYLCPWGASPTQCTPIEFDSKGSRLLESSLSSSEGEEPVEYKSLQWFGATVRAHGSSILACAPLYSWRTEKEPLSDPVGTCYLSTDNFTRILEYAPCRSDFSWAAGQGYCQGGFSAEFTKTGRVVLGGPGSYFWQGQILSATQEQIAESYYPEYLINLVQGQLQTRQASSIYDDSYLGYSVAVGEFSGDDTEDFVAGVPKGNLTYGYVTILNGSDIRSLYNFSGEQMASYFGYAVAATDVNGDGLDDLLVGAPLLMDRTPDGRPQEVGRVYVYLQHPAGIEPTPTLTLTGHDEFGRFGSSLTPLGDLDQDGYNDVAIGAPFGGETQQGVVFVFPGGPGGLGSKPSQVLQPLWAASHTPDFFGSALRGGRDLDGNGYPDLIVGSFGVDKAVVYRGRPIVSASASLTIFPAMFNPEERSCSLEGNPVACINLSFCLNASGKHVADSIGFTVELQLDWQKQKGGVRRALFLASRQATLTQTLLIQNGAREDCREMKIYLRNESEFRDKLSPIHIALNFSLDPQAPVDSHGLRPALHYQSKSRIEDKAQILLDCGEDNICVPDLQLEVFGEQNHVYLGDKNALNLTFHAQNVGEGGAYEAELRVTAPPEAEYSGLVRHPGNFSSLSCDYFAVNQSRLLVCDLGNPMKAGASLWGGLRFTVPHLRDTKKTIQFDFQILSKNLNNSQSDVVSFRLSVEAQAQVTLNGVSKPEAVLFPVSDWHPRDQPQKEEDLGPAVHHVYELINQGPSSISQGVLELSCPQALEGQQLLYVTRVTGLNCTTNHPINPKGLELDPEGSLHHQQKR
Sequence of α5β1 (P08648 895-995 partner limits assumed): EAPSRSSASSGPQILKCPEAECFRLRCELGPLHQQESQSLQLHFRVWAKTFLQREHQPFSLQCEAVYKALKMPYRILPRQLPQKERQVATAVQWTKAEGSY
Sequence of α5β1 (P05556 21-728 limits assumed): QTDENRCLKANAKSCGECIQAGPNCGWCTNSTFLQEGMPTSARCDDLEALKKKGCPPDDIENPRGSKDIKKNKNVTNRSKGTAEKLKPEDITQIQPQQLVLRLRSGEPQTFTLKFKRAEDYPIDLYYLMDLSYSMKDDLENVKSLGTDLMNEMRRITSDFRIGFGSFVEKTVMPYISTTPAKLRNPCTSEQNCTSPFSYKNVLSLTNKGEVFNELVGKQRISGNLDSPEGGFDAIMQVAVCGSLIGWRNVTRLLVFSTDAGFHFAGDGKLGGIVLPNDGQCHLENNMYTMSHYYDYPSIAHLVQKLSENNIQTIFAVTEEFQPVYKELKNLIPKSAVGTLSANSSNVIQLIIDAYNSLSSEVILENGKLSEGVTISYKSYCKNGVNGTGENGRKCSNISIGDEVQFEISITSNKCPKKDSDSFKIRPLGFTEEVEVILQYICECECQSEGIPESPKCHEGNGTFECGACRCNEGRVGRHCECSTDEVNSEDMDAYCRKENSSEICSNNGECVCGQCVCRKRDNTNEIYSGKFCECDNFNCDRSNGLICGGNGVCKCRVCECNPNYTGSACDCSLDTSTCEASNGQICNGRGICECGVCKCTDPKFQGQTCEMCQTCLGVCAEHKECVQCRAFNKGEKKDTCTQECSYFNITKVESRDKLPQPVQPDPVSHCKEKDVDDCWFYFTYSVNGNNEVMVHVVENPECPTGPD
Description: FIG. 3 depicts amino acid sequences of this disclosure. Mass spectrometry and crystallographic data confirmed that CN (SEQ ID. NO. 1) is a homodimer with the 2 chains oriented in an antiparallel fashion and held together by 2 inter-chain disulfide bonds. […] Recombinant CN is SEQ ID NO. 2. VCN is SEQ ID NO. 3. Echistatin is SEQ ID NO. 4.
Further, ^131I-VCN retained essentially 100% radioiodine during dialysis against phosphate buffered saline, pH 7.4, for 15 days. […] Binding kinetics were calculated from the fluorescence anisotropy data generated by steady state binding of FITC-labeled disintegrins to either purified (αvβ3, αvβ5) or recombinant (α5β1) functional human integrins. The dissociation constants for interactions of either CN or VCN with soluble integrins were determined by Scatchard analysis using a non-linear curve fit.

[8] = tested on: platelet aggregation; test: Inhibition of platelet aggregation (bioactivity after radioiodination); assay type: cell-based; settings: radioiodinated VCN

Substance	immune response ([1]; intracranial 50 μg, tumor-bearing (U87 GBM) or tumor-free rodents, 7 days)	immune response ([1]; intracranial 150 μg, after 7, 14 or 21 days)	radioactivity in the brain at 24 hours ([2]; tumor-bearing (C6) rats)	radioactivity in the brain at 24 hours ([2]; tumor-free rats)	survival [3]	hemorrhage [4]	tumor growth (tumor size versus PBS) [5]	adverse effects [6]	behavior, gross and microscopic examination [6]	body weight gain [6]	hematological parameters [6]	improvement of binding affinity to integrin a5b1 [7]	retention of bioactivity after radioiodination, assessed by inhibition of platelet aggregation [8]
contortrostatin [CN]	no evidence of an immune response	no evidence of an immune response	the vast majority of radioactivity was still retained	disappeared from the brains of tumor-free rats	significantly (p<0.008) improved survival	minimal and localized to the injection needle track							
vicrostatin [VCN]							significant (p<0.001) attenuation of tumor growth	no adverse effects observed	no changes in behavior, or in gross or microscopic examination	gained weight indistinguishable from control	no significant differences in hematological parameters	approximately 13 fold	full retention of bioactivity; also recorded: full retention of biological activity
